The target in this data set is T1, AtMYB5trunc (truncated MYB5, MYB DNA-binding domain) (Arabidopsis thaliana (Col)) (UniProt Q38850).
T1 sequence: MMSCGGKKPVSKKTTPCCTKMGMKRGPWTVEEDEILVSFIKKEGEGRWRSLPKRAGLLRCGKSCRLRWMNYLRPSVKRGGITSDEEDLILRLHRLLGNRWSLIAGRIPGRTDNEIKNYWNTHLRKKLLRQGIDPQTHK
Put plainly: EMSA. The note with it: 20 mM NaCl, 5 mM MgCl2, 20 mM Tris pH 8.0, 10% glycerol, 0.5 mM EDTA, 0.5 mM DTT, poly d(I-C); temperature not stated. In general terms: A gel shift assay detects complexes by their altered migration in electrophoresis.

On to “CGATGGTCACTTTCCTCATACTCTTTCTATATTGACTGTTAGTTTCTGGTCATTCTCGAAACAAACACTACATTGACTGTTAGATTTCTCATTTCAACCAAAGTAAGTAATAAATTCTGAACC (double strand) [ABE4 promoter probe]”, for which the binding entry was “binds more weakly”.

For the origin of these results see publication PMC8553427.
